Test results from patent US20250011363A1, “OPTIMIZED SHORTENED PEPTIDE THAT BINDS TO ACETYLCHOLINE RECEPTOR, AND USE THEREOF” (SKINMED CO., LTD., priority 2021, published 2025).
One block for each binder: values may come before it.

Key:
acetylcholine receptor [1] = experiment: SPR, peptide at 10 uM, AchR immobilized
acetylcholine receptor [2] = experiment: SPR, peptide at 10 uM on immobilised AchR

Binding affinity (acetylcholine receptor [1]): 32 RU
B4: 6mer-1-667 (peptide)
peptide: KRDSPK

Binding affinity (RU) (acetylcholine receptor [2]): 139 RU
B7: 6mer-1-57 (peptide)
peptide: RKQYYK

Binding affinity (acetylcholine receptor [1]): 22 RU
B8: 6mer-1-693 (peptide)
peptide: RKIDMK

Binding affinity (acetylcholine receptor [1]): 19 RU
B11: 6mer-1-711 (peptide)
peptide: RRATHR

Binding affinity (acetylcholine receptor [1]): 13 RU
B13: 6mer-1-701 (peptide)
peptide: RRKTWR

Binding affinity (RU) (acetylcholine receptor [2]): 148 RU
B14: 6mer-1-63 (peptide)
peptide: KKWVSR

Binding affinity (acetylcholine receptor [1]): 30 RU
B15: 6mer-1-679 (peptide)
peptide: KKAEER

Binding affinity (RU) (acetylcholine receptor [2]): 139 RU
B16: 6mer-1-42 (peptide)
peptide: KKRIQR

Binding affinity (acetylcholine receptor [1]): 33 RU
B18: 6mer-1-688 (peptide)
peptide: RKDEVR

Binding affinity (acetylcholine receptor [1]): 28 RU
B19: 6mer-1-699 (peptide)
peptide: RRTTVR

Binding affinity (acetylcholine receptor [1]): 16 RU
B21: 6mer-1-676 (peptide)
peptide: KRCPWR

Binding affinity (acetylcholine receptor [1]): 29 RU
B23: 6mer-1-706 (peptide)
peptide: KRMKDR

Binding affinity (acetylcholine receptor [1]): 20 RU
B24: 6mer-1-684 (peptide)
peptide: KRNNDR

Binding affinity (acetylcholine receptor [1]): 14 RU
B25: 6mer-1-708 (peptide)
peptide: KKKHEK

Binding affinity (RU) (acetylcholine receptor [2]): 135 RU
B28: 6mer-1-67 (peptide)
peptide: RRSYTR

Binding affinity (RU) (acetylcholine receptor [2]): 145 RU
B33: 6mer-1-59 (peptide)
peptide: KRLQCK

Binding affinity (acetylcholine receptor [1]): 11 RU
B34: 6mer-1-689 (peptide)
peptide: KRCPVR

Binding affinity (acetylcholine receptor [1]): 11 RU
B38: 6mer-1-716 (peptide)
peptide: RRMPFK

Binding affinity (acetylcholine receptor [1]): 16 RU
B39: 6mer-1-673 (peptide)
peptide: RRAMPK

Binding affinity (RU) (acetylcholine receptor [2]): 123 RU
B41: 6mer-1-53 (peptide)
peptide: KRVIQR

Binding affinity (acetylcholine receptor [1]): 22 RU
B42: 6mer-1-717 (peptide)
peptide: KRHEDR

Binding affinity (RU) (acetylcholine receptor [2]): 142 RU
B43: 6mer-1-46 (peptide)
peptide: KRLYQR

Binding affinity (acetylcholine receptor [1]): 21 RU
B44: 6mer-1-675 (peptide)
peptide: KKIWKR

Binding affinity (RU) (acetylcholine receptor [2]): 127 RU
B45: 6mer-1-51 (peptide)
peptide: RRVLYK

Binding affinity (RU) (acetylcholine receptor [2]): 121 RU
B51: 6mer-1-65 (peptide)
peptide: KKSRRR

Binding affinity (acetylcholine receptor [1]): 18 RU
B52: 6mer-1-715 (peptide)
peptide: KRMMVK

Binding affinity (acetylcholine receptor [1]): 29 RU
B54: 6mer-1-709 (peptide)
peptide: KKFKPK

Binding affinity (acetylcholine receptor [1]): 11 RU
B55: 6mer-1-671 (peptide)
peptide: KKNMVR

Binding affinity (RU) (acetylcholine receptor [2]): 149 RU
B56: 6mer-1-47 (peptide)
peptide: KRRLLK

Binding affinity (acetylcholine receptor [1]): 25 RU
B57: 6mer-1-678 (peptide)
peptide: KRMAAK

Binding affinity (RU) (acetylcholine receptor [2]): 139 RU
B61: 6mer-1-60 (peptide)
peptide: RKSIQK

Binding affinity (acetylcholine receptor [1]): 25 RU
B62: 6mer-1-686 (peptide)
peptide: KKYEVR

Binding affinity (acetylcholine receptor [1]): 23 RU
B63: 6mer-1-687 (peptide)
peptide: RREWIK

Binding affinity (acetylcholine receptor [1]): 31 RU
B65: 6mer-1-702 (peptide)
peptide: KRDWVK

Binding affinity (acetylcholine receptor [1]): 27 RU
B67: 6mer-1-694 (peptide)
peptide: RKYTKR

Binding affinity (acetylcholine receptor [1]): 17 RU
B68: 6mer-1-668 (peptide)
peptide: RKATVK

Binding affinity (acetylcholine receptor [1]): 16 RU
B70: 6mer-1-704 (peptide)
peptide: RRMCER

Binding affinity (acetylcholine receptor [1]): 32 RU
B73: 6mer-1-674 (peptide)
peptide: RKHPKK

Binding affinity (acetylcholine receptor [1]): 18 RU
B76: 6mer-1-666 (peptide)
peptide: KKAANK

Binding affinity (acetylcholine receptor [1]): 32 RU
B77: 6mer-1-681 (peptide)
peptide: KKEWKK

Binding affinity (acetylcholine receptor [1]): 31 RU
B78: 6mer-1-691 (peptide)
peptide: RKPKAR

Binding affinity (acetylcholine receptor [1]): 17 RU
B79: 6mer-1-672 (peptide)
peptide: RKMEIR

Further lines, the binder ahead of its results:

B1: 6mer-1-700 (peptide)
peptide: RKKMWK
Binding affinity (acetylcholine receptor [1]): 19 RU

B2: 6mer-1-683 (peptide)
peptide: KRDSMR
Binding affinity (acetylcholine receptor [1]): 16 RU

B3: 6mer-1-697 (peptide)
peptide: RRPTNR
Binding affinity (acetylcholine receptor [1]): 13 RU

B5: 6mer-1-66 (peptide)
peptide: KKSISR
Binding affinity (RU) (acetylcholine receptor [2]): 147 RU

B6: 6mer-1-718 (peptide)
peptide: RKFKAR
Binding affinity (acetylcholine receptor [1]): 23 RU

B9: 6mer-1-45 (peptide)
peptide: RKGLTK
Binding affinity (RU) (acetylcholine receptor [2]): 145 RU

B10: 6mer-1-44 (peptide)
peptide: KRQYCK
Binding affinity (RU) (acetylcholine receptor [2]): 148 RU

B12: 6mer-1-712 (peptide)
peptide: KKPSNK
Binding affinity (acetylcholine receptor [1]): 24 RU

B17: 6mer-1-58 (peptide)
peptide: RKSVTR
Binding affinity (RU) (acetylcholine receptor [2]): 126 RU

B20: 6mer-1-685 (peptide)
peptide: RRESWK
Binding affinity (acetylcholine receptor [1]): 14 RU

B22: 6mer-1-695 (peptide)
peptide: KRADVK
Binding affinity (acetylcholine receptor [1]): 13 RU

B26: 6mer-1-690 (peptide)
peptide: KREAER
Binding affinity (acetylcholine receptor [1]): 21 RU

B27: 6mer-1-62 (peptide)
peptide: RRWFTK
Binding affinity (RU) (acetylcholine receptor [2]): 133 RU

B29: 6mer-1-52 (peptide)
peptide: RRRFLR
Binding affinity (RU) (acetylcholine receptor [2]): 131 RU

B30: 6mer-1-710 (peptide)
peptide: KKMHHR
Binding affinity (acetylcholine receptor [1]): 21 RU

B31: 6mer-1-56 (peptide)
peptide: RRGIQR
Binding affinity (RU) (acetylcholine receptor [2]): 137 RU

B32: 6mer-1-61 (peptide)
peptide: KRSYCK
Binding affinity (RU) (acetylcholine receptor [2]): 121 RU

B35: 6mer-1-682 (peptide)
peptide: KKKDIR
Binding affinity (acetylcholine receptor [1]): 30 RU

B36: 6mer-1-670 (peptide)
peptide: KKDWNR
Binding affinity (acetylcholine receptor [1]): 11 RU

B37: 6mer-1-703 (peptide)
peptide: KKFHPR
Binding affinity (acetylcholine receptor [1]): 18 RU

B40: 6mer-1-680 (peptide)
peptide: KKDPPR
Binding affinity (acetylcholine receptor [1]): 27 RU

B46: 6mer-1-705 (peptide)
peptide: KRTEWR
Binding affinity (acetylcholine receptor [1]): 12 RU

B47: 6mer-1-54 (peptide)
peptide: RRRVCK
Binding affinity (RU) (acetylcholine receptor [2]): 144 RU

B48: 6mer-1-698 (peptide)
peptide: KRFNHK
Binding affinity (acetylcholine receptor [1]): 27 RU

B49: 6mer-1-692 (peptide)
peptide: RKNTHK
Binding affinity (acetylcholine receptor [1]): 22 RU

B50: 6mer-1-48 (peptide)
peptide: RRWVRR
Binding affinity (RU) (acetylcholine receptor [2]): 124 RU

B53: 6mer-1-55 (peptide)
peptide: KRSIYR
Binding affinity (RU) (acetylcholine receptor [2]): 133 RU

B58: 6mer-1-64 (peptide)
peptide: RKQFTK
Binding affinity (RU) (acetylcholine receptor [2]): 154 RU

B59: 6mer-1-713 (peptide)
peptide: KKATNK
Binding affinity (acetylcholine receptor [1]): 20 RU

B60: 6mer-1-68 (peptide)
peptide: RKLQLK
Binding affinity (RU) (acetylcholine receptor [2]): 153 RU

B64: 6mer-1-669 (peptide)
peptide: KRNMAK
Binding affinity (acetylcholine receptor [1]): 23 RU

B66: 6mer-1-50 (peptide)
peptide: KKVRTR
Binding affinity (RU) (acetylcholine receptor [2]): 139 RU

B69: 6mer-1-696 (peptide)
peptide: KKHCNR
Binding affinity (acetylcholine receptor [1]): 18 RU

B71: 6mer-1-49 (peptide)
peptide: RRWQTR
Binding affinity (RU) (acetylcholine receptor [2]): 149 RU

B72: 6mer-1-714 (peptide)
peptide: KRTSFK
Binding affinity (acetylcholine receptor [1]): 25 RU

B74: 6mer-1-677 (peptide)
peptide: KKCCFR
Binding affinity (acetylcholine receptor [1]): 22 RU

B75: 6mer-1-707 (peptide)
peptide: KRFWPK
Binding affinity (acetylcholine receptor [1]): 26 RU
